Results on 1 substance are retold here after PMC3449402.

The assay addresses MAb<EGFR> (human). Briefly: SPR. In general terms: Surface plasmon resonance follows binding to a sensor surface in real time, without labels.

By Kd is commonly meant the concentration at which binding is half-saturated. A low value points to a tighter complex. “soluble construct of the FcγRIIIa ectodomain (from UniProt P08637 17-208) (receptor)” gave an equilibrium dissociation constant (Kd) of 0.12 µM.
